This passage reports % activity, 100 µM results from patent US20140072613A1, “Compositions and Methods for Treating Cutaneous Scarring” (priority 2012, published 2014).

Some targets named below: AMPKα2(h) (human) (UniProt P54646); Abl(M351T)(h) (human) (UniProt P00519); Aurora-B(h) (human) (UniProt Q96GD4); BTK(R28H)(h) (human) (UniProt Q06187); BTK(h) (human) (UniProt Q06187); ErbB4(h) (human) (UniProt Q15303); Fes(h) (human) (UniProt P07332); JNK3(h) (human) (UniProt P53779); PASK(h) (human) (UniProt Q96RG2); PKCθ(h) (human) (UniProt Q04759); cSRC(h) (human) (UniProt P12931); p70S6K(h) (human) (UniProt P23443).

What all share (assay): cell-based or functional assay
Another assay deals with T1, Flt3(h) (human) (UniProt P36888).
T1 sequence (looked up): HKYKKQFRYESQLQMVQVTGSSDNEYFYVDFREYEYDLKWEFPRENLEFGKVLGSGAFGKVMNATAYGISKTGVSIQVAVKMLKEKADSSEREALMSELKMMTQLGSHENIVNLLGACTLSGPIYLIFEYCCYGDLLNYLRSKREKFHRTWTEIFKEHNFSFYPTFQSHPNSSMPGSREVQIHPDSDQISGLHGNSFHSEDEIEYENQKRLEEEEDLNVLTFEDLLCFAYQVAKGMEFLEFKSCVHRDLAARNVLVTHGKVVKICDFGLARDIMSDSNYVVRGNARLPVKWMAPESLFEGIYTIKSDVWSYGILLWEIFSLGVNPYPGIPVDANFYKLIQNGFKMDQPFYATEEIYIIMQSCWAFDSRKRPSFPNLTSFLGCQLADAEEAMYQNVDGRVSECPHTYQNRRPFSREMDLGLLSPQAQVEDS

Another assay has as its target T2, IKKα(h) (human) (UniProt O15111).
T2 sequence (looked up): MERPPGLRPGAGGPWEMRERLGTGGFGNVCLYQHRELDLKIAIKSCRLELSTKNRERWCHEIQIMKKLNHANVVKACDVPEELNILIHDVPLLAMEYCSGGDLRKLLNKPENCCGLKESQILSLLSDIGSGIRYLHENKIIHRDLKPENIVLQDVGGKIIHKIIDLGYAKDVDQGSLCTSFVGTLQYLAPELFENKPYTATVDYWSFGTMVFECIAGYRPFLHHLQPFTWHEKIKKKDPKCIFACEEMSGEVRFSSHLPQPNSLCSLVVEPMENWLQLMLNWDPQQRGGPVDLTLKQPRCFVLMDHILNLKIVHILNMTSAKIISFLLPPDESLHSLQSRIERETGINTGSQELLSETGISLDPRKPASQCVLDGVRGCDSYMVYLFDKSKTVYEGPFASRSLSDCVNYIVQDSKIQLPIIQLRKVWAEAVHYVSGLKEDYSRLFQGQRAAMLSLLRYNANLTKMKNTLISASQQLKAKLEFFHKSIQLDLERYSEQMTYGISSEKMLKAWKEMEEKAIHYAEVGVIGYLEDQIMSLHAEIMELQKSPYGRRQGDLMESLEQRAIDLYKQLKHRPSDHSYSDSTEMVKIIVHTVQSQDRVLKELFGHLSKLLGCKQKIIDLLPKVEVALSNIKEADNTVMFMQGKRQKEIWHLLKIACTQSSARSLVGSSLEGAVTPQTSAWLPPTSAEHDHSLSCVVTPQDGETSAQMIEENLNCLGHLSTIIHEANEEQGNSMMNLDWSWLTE

The target of a further assay is T3, Itk(h) (human) (UniProt Q08881).
T3 sequence (looked up): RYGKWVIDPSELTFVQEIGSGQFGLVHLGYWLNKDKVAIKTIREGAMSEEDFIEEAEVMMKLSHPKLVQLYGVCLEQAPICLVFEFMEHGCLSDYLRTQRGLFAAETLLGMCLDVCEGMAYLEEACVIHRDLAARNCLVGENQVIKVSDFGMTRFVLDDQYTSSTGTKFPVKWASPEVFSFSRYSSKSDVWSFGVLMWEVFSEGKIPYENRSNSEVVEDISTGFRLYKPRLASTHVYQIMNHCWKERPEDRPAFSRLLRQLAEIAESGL

The target of a further assay is T4, PKD2(h) (human) (UniProt Q9BZL6).
T4 sequence (looked up): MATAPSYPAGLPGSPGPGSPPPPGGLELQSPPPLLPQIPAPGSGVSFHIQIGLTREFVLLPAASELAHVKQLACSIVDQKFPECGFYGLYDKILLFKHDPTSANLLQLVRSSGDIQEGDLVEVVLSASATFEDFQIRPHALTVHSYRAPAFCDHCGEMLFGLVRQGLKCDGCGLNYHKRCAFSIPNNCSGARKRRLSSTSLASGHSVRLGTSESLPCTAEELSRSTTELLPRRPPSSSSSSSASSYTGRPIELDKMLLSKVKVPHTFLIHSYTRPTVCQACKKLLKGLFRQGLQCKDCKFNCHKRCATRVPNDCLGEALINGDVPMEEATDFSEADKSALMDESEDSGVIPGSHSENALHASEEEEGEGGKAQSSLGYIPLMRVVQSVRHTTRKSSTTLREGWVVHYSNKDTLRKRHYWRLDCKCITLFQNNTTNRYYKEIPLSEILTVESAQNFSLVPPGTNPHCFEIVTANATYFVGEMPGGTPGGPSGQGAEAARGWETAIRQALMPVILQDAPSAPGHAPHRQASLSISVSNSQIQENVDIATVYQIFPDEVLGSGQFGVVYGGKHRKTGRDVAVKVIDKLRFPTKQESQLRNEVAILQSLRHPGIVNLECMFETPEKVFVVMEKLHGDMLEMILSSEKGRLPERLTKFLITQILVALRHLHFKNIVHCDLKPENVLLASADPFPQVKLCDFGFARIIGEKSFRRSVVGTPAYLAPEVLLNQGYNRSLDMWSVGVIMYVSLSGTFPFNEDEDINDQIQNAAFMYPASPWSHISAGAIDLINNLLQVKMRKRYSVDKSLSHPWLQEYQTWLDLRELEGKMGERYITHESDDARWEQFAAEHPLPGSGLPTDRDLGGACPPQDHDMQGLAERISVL

Sequence of PASK(h) (human) (Q96RG2 879-1323 limits assumed): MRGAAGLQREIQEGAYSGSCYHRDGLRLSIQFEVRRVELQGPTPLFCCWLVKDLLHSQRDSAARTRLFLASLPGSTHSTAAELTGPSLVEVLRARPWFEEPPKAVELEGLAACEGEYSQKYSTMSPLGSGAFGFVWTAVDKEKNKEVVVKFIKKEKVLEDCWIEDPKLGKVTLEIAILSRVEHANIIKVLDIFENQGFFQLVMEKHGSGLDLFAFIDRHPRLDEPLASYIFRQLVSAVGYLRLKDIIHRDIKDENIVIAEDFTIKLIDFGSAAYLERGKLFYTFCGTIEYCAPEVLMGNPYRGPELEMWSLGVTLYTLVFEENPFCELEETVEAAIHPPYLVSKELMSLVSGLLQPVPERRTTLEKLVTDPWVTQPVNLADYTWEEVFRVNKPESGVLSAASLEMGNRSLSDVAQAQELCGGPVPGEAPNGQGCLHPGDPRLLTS
Sequence of ErbB4(h) (human) (Q15303 706-991 limits assumed): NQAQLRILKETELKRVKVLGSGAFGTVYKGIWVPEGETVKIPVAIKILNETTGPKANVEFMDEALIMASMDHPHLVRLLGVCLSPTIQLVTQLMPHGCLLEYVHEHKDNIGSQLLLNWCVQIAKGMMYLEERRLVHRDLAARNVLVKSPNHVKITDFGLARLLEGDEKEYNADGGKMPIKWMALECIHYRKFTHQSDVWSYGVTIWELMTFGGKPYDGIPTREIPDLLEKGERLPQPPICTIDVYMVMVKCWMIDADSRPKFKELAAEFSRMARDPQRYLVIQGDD
Sequence of JNK3(h) (human) (P53779 whole entry): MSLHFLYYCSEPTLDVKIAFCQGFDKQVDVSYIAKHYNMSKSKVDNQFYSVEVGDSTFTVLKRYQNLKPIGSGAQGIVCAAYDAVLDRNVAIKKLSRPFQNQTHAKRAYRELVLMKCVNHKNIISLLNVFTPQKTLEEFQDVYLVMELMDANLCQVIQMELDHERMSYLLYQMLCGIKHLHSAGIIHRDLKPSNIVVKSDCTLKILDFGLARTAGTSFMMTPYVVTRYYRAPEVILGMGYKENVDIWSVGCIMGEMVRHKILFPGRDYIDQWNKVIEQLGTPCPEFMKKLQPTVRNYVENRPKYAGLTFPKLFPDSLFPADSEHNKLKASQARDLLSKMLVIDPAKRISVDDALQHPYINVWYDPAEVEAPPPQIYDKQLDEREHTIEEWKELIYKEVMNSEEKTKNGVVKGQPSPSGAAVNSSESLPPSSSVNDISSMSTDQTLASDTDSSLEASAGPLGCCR
Sequence of PKCθ(h) (human) (Q04759 whole entry): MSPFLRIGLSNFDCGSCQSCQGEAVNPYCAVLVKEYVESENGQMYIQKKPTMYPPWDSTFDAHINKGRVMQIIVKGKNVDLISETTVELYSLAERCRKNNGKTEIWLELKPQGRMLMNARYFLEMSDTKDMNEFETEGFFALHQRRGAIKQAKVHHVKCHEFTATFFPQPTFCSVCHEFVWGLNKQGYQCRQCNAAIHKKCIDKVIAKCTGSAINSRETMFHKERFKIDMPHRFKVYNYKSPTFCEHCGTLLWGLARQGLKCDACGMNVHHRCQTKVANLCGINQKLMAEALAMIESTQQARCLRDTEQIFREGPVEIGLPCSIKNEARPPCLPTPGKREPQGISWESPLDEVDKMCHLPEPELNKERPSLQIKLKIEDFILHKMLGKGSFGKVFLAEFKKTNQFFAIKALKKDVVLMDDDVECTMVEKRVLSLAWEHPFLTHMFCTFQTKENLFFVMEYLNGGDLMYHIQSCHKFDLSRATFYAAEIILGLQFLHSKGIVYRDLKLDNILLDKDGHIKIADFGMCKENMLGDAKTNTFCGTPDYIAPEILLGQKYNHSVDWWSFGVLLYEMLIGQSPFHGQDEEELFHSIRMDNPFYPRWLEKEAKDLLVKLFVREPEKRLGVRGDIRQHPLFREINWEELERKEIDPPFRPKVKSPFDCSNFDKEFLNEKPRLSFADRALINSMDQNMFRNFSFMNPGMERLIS
Sequence of Aurora-B(h) (human) (Q96GD4 whole entry): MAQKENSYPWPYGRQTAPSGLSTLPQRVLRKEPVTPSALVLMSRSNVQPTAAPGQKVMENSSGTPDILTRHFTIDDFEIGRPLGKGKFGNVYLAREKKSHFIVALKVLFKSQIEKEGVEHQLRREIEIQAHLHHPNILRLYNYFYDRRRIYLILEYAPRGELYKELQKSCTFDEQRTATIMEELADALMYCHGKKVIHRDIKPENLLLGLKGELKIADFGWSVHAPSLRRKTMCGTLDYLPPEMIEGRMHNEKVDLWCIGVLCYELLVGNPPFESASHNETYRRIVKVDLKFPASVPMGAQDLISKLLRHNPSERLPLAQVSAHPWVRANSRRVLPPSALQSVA
Sequence of Abl(M351T)(h) (human) (P00519 27-1130 M351T limits assumed): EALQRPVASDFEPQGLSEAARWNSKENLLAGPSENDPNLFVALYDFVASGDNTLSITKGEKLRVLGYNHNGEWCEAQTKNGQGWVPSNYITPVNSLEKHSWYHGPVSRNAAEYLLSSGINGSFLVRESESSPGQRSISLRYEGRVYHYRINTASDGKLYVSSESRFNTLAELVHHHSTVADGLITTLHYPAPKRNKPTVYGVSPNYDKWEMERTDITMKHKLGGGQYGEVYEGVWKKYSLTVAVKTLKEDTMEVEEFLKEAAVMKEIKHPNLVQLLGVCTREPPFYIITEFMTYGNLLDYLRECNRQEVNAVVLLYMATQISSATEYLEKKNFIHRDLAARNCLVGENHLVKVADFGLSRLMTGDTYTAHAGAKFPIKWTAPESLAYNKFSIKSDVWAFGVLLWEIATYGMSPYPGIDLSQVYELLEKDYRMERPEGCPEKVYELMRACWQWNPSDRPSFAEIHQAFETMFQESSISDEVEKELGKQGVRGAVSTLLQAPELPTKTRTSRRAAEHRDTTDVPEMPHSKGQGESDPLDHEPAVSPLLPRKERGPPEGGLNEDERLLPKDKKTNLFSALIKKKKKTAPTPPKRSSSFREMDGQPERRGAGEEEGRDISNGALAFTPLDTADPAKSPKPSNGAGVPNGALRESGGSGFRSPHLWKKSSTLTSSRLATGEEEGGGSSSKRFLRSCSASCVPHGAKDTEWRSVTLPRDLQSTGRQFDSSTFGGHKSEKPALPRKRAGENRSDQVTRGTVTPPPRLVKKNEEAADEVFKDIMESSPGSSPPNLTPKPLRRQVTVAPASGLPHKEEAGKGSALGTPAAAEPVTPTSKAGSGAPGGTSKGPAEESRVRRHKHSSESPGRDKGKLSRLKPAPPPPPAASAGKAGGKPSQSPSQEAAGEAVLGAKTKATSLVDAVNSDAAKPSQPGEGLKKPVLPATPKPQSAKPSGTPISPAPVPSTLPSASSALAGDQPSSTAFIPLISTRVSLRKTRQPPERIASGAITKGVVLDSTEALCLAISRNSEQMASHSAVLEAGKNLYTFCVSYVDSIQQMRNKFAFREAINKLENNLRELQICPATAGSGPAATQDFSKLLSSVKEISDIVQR
Sequence of Fes(h) (human) (P07332 whole entry): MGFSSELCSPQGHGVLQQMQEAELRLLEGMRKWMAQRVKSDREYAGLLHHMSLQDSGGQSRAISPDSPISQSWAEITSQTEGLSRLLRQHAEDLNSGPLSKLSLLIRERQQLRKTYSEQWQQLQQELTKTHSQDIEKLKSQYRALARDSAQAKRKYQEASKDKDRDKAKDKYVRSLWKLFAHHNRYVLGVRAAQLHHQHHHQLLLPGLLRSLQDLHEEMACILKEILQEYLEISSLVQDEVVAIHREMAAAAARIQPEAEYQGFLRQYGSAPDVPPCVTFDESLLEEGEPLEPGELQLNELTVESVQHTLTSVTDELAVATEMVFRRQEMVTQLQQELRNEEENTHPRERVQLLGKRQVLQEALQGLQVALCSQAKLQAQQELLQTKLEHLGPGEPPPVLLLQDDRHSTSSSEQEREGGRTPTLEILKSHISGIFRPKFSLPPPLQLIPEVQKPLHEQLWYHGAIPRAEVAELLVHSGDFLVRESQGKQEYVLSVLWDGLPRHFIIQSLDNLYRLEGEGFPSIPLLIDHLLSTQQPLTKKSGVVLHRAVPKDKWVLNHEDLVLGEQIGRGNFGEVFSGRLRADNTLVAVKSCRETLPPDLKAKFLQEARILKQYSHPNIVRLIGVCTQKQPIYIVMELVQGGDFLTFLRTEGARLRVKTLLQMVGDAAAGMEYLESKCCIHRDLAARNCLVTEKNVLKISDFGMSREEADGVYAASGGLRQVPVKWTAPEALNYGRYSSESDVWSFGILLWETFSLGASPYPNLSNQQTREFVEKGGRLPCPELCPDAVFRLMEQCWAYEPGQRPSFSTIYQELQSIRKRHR
Sequence of BTK(h) (human) (Q06187 whole entry): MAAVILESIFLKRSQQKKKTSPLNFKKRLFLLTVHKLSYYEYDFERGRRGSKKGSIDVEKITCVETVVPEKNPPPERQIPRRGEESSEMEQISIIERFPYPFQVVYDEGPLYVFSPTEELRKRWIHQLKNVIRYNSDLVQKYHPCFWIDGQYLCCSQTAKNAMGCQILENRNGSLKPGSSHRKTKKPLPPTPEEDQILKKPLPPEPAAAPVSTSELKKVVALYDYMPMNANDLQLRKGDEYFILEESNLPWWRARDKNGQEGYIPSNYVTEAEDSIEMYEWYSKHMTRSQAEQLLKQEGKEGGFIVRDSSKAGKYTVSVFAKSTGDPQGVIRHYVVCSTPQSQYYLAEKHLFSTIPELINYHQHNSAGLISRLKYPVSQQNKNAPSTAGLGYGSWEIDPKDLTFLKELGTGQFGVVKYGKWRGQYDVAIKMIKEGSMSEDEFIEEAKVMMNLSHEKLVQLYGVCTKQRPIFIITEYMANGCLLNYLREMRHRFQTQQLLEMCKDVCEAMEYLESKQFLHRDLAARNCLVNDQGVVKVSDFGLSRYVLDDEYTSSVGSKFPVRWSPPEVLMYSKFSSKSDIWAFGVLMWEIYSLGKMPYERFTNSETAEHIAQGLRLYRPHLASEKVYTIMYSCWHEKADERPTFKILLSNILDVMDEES
Sequence of BTK(R28H)(h) (human) (Q06187 whole entry R28H): as the sequence (Q06187 whole entry) above, with R28H counted along it

Take MMI-0500 (peptide): the % activity, 100 µM is 9% with AMPKα2(h) (human); 61% in the assay with Abl(M351T)(h) (human); 5% in the assay with Aurora-B(h) (human); 10% in the assay with BTK(R28H)(h) (human); 18% with BTK(h) (human); 2% in the assay with ErbB4(h) (human). For the same substance, the % activity, 100 µM was found to be 23% with Fes(h) (human); 17% with Flt3(h) (human); 50% with IKKα(h) (human); 7% with Itk(h) (human); 171% with JNK3(h) (human); 9% in the assay with PASK(h) (human). The % activity, 100 µM in the assay with PKCθ(h) (human) was 62%; in the assay with PKD2(h) (human), 10%; with cSRC(h) (human), 30%; with p70S6K(h) (human), 3%.
